Measured values: patent US20210054077A1 (AMUNIX PHARMACEUTICALS, published 2021)
Where a chain is given by its changes, count along the chain named.

Experiments:
[1] = target: T1, Human CD3 ϵ -Fc (human, UniProt P07766 23-126); assay: BLI (ForteBio Octet Red); target-Fc loaded on anti-human Fc biosensor, AC2275 as analyte 1010 nM to 16 nM
T1 construct: not shown: Fc part, captured on anti-human Fc biosensors

[2] = target: T2, Cyno CD3 ϵ -Fc (cynomolgus monkey, UniProt Q95LI5 22-117); assay: as above
T2 construct: also called cynomolgus monkey CD3; not shown: Fc part, captured on anti-human Fc biosensors
T2 sequence (looked up): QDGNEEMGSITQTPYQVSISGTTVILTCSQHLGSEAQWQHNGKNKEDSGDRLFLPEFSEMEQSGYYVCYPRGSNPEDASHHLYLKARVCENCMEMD

[3] = target: human HER2 on cells (HER2 positive human carcinoma cells; CT26-huHER2 transfected cells; human cardiomyocytes) (human, UniProt P04626 23-1255); assay: cell-based or functional assay
[4] = target: Biotinylated CD3CEµ antigen (Creative Biomart); assay: BLI (ForteBio BLItz); biotinylated CD3 antigen on streptavidin biosensor, scFv dilution series in solution
[5] = target: human HER2 on cells (HER2 positive human carcinoma cells; CT26-huHER2 transfected cells; human cardiomyocytes) (human) (UniProt P04626); assay: cell-based or functional assay

Chain of Biotinylated CD3CEµ antigen (Creative Biomart) (P07766 23-126): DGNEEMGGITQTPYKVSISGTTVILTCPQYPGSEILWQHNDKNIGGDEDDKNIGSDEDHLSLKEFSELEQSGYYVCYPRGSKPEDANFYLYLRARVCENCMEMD
T1 sequence (P07766 23-126): as above

B1: AC2275, bivalent anti-HER2, anti-CD3 XTENylated binder (HER2-XPAT of Example 24) (bispecific antibody)
chain: HHHHHHSPAGSPTSTEEGTSESATPESGPGTSTEPSEGSAPGTSESATPESGPGSEPATSGSETPGTSESATPESGPGSEPATSGSETPGTSESATPESGPGTSTEPSEGSAPGSPAGSPTSTEEGTSESATPESGPGSEPATSGSETPGTSESATPESGPGSPAGSPTSTEEGSPAGSPTSTEEGTSTEPSEGSAPGTSESATPESGPGTSESATPESGPGTSESATPESGPGSEPATSGSETPGSEPATSGSETPGSPAGSPTSTEEGTSTEPSEGSAPGTSTEPSEGSAPGGSAPEAGRSANHTPAGLTGPATSGSETPGTDIQMTQSPSSLSASVGDRVTITCKASQDVSIGVAWYQQKPGKAPKLLIYSASYRYTGVPSRFSGSGSGTDFTLTISSLQPEDFATYYCQQYYIYPYTFGQGTKVEIKGATPPETGAETESPGETTGGSAESEPPGEGEVQLVESGGGLVQPGGSLRLSCAASGFTFTDYTMDWVRQAPGKGLEWVADVNPNSGGSIYNQRFKGRFTLSVDRSKNTLYLQMNSLRAEDTAVYYCARNLGPSFYFDYWGQGTLVTVSSGGGGSELVVTQEPSLTVSPGGTVTLTCRSSNGAVTSSNYANWVQQKPGQAPRGLIGGTNKRAPGTPARFSGSLLGGKAALTLSGVQPEDEAVYYCALWYPNLWVFGGGTKLTVLGATPPETGAETESPGETTGGSAESEPPGEGEVQLLESGGGIVQPGGSLKLSCAASGFTFNTYAMNWVRQAPGKGLEWVARIRSKYNNYATYYADSVKDRFTISRDDSKNTVYLQMNNLKTEDTAVYYCVRHENFGNSYVSWFAHWGQGTLVTVSSGTAEAASASGEAGRSANHTPAGLTGPPGSPAGSPTSTEEGTSESATPESGPGTSTEPSEGSAPGSPAGSPTSTEEGTSTEPSEGSAPGTSTEPSEGSAPGTSESATPESGPGSEPATSGSETPGSEPATSGSETPGSPAGSPTSTEEGTSESATPESGPGTSTEPSEGSAPGTSTEPSEGSAPGSPAGSPTSTEEGTSTEPSEGSAPGTSTEPSEGSAPGTSESATPESGPGTSTEPSEGSAPGTSESATPESGPGSEPATSGSETPGTSTEPSEGSAPGTSTEPSEGSAPGTSESATPESGPGTSESATPESGPGSPAGSPTSTEEGTSESATPESGPGSEPATSGSETPGTSESATPESGPGTSTEPSEGSAPGTSTEPSEGSAPGTSTEPSEGSAPGTSTEPSEGSAPGTSTEPSEGSAPGTSTEPSEGSAPGSPAGSPTSTEEGTSTEPSEGSAPGTSESATPESGPGSEPATSGSETPGTSESATPESGPGSEPATSGSETPGTSESATPESGPGTSTEPSEGSAPGTSESATPESGPGSPAGSPTSTEEGSPAGSPTSTEEGSPAGSPTSTEEGTSESATPESGPGTSTEPSEGSAPGAAEPEA
notes: also called HER2-XPAT 2275
Kd [1]: 111 nM
Kd [2]: 170 nM
EC50, % CD69+ T cells in human PBMC co-cultured with SK-OV-3 cells (flow cytometry) [3]: 3.63 nM
IC50, T-cell directed cytotoxicity (CellTiter-Glo ATP assay), BT474 cells with human PBMC [3]: 1.36 nM
IC50, T-cell directed cytotoxicity (CellTiter-Glo ATP assay), MCF7 cells with human PBMC [3]: > 26.7 nM
IC50, T-cell directed cytotoxicity (CellTiter-Glo ATP assay), SKOV3 cells with human PBMC [3]: 15.3 nM

B2: CD3.9 scFv (scFv)
scFv: ELVVTQEPSLTVSPGGTVTLTCRSSTGAVTTSNYANWVQQKPGQAPRGLIGGTNKRAPGTPARFSGSLLGGKAALTLSGVQPEDEAEYYCALWYSNLWVFGGGTKLTVLGATPPETGAETESPGETTGGSAESEPPGEGEVQLLESGGGLVQPGGSLKLSCAASGFTFNTYAMNWVRQAPGKGLEWVARIRSKYNNYATYYADSVKDRFTISRDDSKNTAYLQMNNLKTEDTAVYYCVRHGNFGNSYVSWFAYWGQGTLVTVSS
Kd [4]: 75 nM

B3: CD3.23 scFv (scFv)
scFv: B2 scFv with T26N, T31S, E87V, S95P, L150I, A220V, G241E, Y253H
Kd [4]: 175 nM

B4: CD3.25 scFv (scFv)
scFv: B2 scFv with L10H, T31S, N54I, S95P, L150I, A220V, G241E, Y253H
Kd [4]: 215 nM

B5: CD3.24 scFv (scFv)
scFv: B2 scFv with T26N, A28E, N54I, E87V, S95P, L150I, A220V, G241E, Y253H
Kd [4]: 296 nM

B6: CD3.26 scFv (scFv)
scFv: B2 scFv with L10H, A28E, N54I, S95P, L150I, A220V, G241E, Y253H
Kd [4]: 221 nM

B7: pJB0244, masked anti-HER2 x anti-CD3 bispecific antigen binding polypeptide with two XTEN and two RSR2295 release segments (bispecific antibody, part only; not given: AE868 XTEN, scFv linker, not shown: small tags and cut ends)
chain, part: HHHHHHSPAGSPTSTEEGTSESATPESGPGTSTEPSEGSAPGTSESATPESGPGSEPATSGSETPGTSESATPESGPGSEPATSGSETPGTSESATPESGPGTSTEPSEGSAPGSPAGSPTSTEEGTSESATPESGPGSEPATSGSETPGTSESATPESGPGSPAGSPTSTEEGSPAGSPTSTEEGTSTEPSEGSAPGTSESATPESGPGTSESATPESGPGTSESATPESGPGSEPATSGSETPGSEPATSGSETPGSPAGSPTSTEEGTSTEPSEGSAPGTSTEPSEGSAPGGSAPEAGRSANHTPAGLTGPDIQMTQSPSSLSASVGDRVTITCKASQDVSIGVAWYQQKPGKAPKLLIYSASYRYTGVPSRFSGSGSGTDFTLTISSLQPEDFATYYCQQYYIYPYTFGQGTKVEIKGATPPETGAETESPGETTGGSAESEPPGEGEVQLVESGGGLVQPGGSLRLSCAASGFTFTDYTMDWVRQAPGKGLEWVADVNPNSGGSIYNQRFKGRFTLSVDRSKNTLYLQMNSLRAEDTAVYYCARNLGPSFYFDYWGQGTLVTVSSELVVTQEPSLTVSPGGTVTLTCRSSNGAVTSSNYANWVQQKPGQAPRGLIGGTNKRAPGTPARFSGSLLGGKAALTLSGVQPEDEAVYYCALWYPNLWVFGGGTKLTVLGATPPETGAETESPGETTGGSAESEPPGEGEVQLLESGGGIVQPGGSLKLSCAASGFTFNTYAMNWVRQAPGKGLEWVARIRSKYNNYATYYADSVKDRFTISRDDSKNTVYLQMNNLKTEDTAVYYCVRHENFGNSYVSWFAHWGQGTLVTVSSEAGRSANHTPAGLTGP
EC50 (pM), cytotoxicity (Caspase-Glo 3/7), BT-474 cells with human PBMC [5]: 66000 pM
EC50 (pM), cytotoxicity (Caspase-Glo 3/7), SK-Br3 cells with human PBMC [5]: 19500 pM
EC50 (pM), cytotoxicity (Caspase-Glo 3/7), SKOV-3 cells with human PBMC [5]: 14100 pM
